Consider six substances from patent publication US20210269818A1.

The assay deals with Rubisco purified from wheat leaves, inhibited by RuBP (ER) (Triticum aestivum (wheat)) (UniProt P11383). The experiment in a line: cell-based or functional assay.
With “Rca extracted from control wheat leaves (TaRca-leaf-25° C.) (enzyme)”, the Tm (° C.) (V): thermal midpoint at which half of Rubisco activation velocity by Rca is lost amounted to 38.6 ° C.
“Rca extracted from heat treated wheat leaves (TaRca-leaf-38° C.) (enzyme)”: the Tm (° C.) (V): thermal midpoint at which half of Rubisco activation velocity by Rca is lost was 39.5 ° C.
The figure for “recombinant rice Rca β (OsRca-β), signal peptide deleted, C-terminal His-tag (from UniProt P93431 49-466) (enzyme)” is 42.5 ° C.
With “recombinant wheat Rca1 β (TaRca1-β), signal peptide deleted, C-terminal His-tag (from UniProt Q42450 44-425) (enzyme)”, the Tm (° C.) (V): thermal midpoint at which half of Rubisco activation velocity by Rca is lost was 42 ° C.
“recombinant wheat Rca2 α (TaRca2-α), signal peptide deleted, C-terminal His-tag (from UniProt Q40073 47-464) (enzyme)”: the Tm (° C.) (V): thermal midpoint at which half of Rubisco activation velocity by Rca is lost was determined as 35.3 ° C.
The figure for “recombinant wheat Rca2 β (TaRca2-β), signal peptide deleted, C-terminal His-tag (from UniProt Q40073 49-427) (enzyme)” is 34.8 ° C.
